Source: patent US20240092922A1
pKd: −log10 of the molar value.

Key:
[1] = target: Histidine-tagged human 4-1BB protein (h4-1BB-His) (human) (UniProt Q07011); experiment: SPR (Biacore T200), antibody on Protein A chip, h4-1BB-His injected
[2] = target: monkey (Rhesus macaque) 4-1BB (r4-1BB) on transfected CHO cells (monkey (Rhesus macaque)); experiment: flow cytometry on CHO-r4-1BB (T) cells, negative control panel, detection with anti-mouse-IgG-Fc-PE (1:500)
[3] = target: human 4-1BB (h4-1BB) on transiently transfected CHO cells (human) (UniProt Q07011); experiment: flow cytometry on CHO cells transiently transfected with human 4-1BB, detection with anti-mouse-IgG-Fc-FITC (1:100), SSC-H against FITC; negative control panel
[4] = target: chimeric (mouse and human) 4-1BB (c4-1BB) on transfected CHO cells (chimeric (mouse and human)); experiment: flow cytometry on CHO-c4-1BB cells, negative control panel, detection with anti-mouse-IgG-Fc-FITC (1:100)
[5] = target: mouse 4-1BB (m4-1BB) on transfected CHO cells (mouse) (UniProt P20334); experiment: flow cytometry on CHO-m4-1BB cells, negative control panel, detection with anti-mouse-IgG-Fc-FITC (1:100)

Chain of urelumab (antibody) (VH): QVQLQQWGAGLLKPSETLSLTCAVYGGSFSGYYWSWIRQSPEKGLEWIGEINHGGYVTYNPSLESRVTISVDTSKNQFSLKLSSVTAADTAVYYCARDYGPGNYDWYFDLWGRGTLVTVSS
Chain of urelumab (antibody) (VL): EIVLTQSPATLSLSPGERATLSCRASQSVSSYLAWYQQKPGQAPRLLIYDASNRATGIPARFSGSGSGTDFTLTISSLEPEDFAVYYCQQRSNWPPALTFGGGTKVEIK

Row | pKd [1] | koff [1] [s⁻¹] | kon [1] [M⁻¹ s⁻¹] | percent of cells in the PE-positive gate [2] [%] | percent of cells in the FITC-positive gate [3] [%] | percent of cells in the FITC-positive gate [4] [%] | percent of cells in the FITC-positive gate [5] [%] | Substance
1 | 7.35 | 0.00302 | 68100 |  |  |  |  | urelumab (antibody)
2 |  |  |  | 0.429 | 0.598 | 1.07 | 0.983 | NC
